US20170362301A1 (Janssen / Centocor, published 2017)

Legend:
[1] = molecular target: T1, EGFR (form in the assay not stated) (human, UniProt P00533 25-645, limits assumed); assay: ELISA, NEM conjugate 500 nM
[2] = molecular target: T1, EGFR (form in the assay not stated); assay: ELISA, NEM conjugate 100 nM
[3] = molecular target: T1, EGFR (form in the assay not stated); assay: ELISA, NEM conjugate 10 nM

Row | Binder | binding ratio vs parent P54AR4-83v2 [1] [ratio] | binding ratio vs parent P54AR4-83v2 [2] [ratio] | binding ratio vs parent P54AR4-83v2 [3] [ratio]
1 | P54AR4-83v2 L32C, NEM conjugate (designed binder, NEM on Cys 32, His-tagged) LPAPKNLVVSEVTEDSARLSWDDPWAFYESFCIQYQESEKVGEAIVLTVPGSERSYDLTGLKPGTEYTVSIYGVHNVYKDTNMRGLPLSAIFTT | 0.91 | 1.01 | 0.87
2 | P54AR4-83v2 L47C, NEM conjugate (designed binder, NEM on Cys 47, His-tagged) LPAPKNLVVSEVTEDSARLSWDDPWAFYESFLIQYQESEKVGEAIVCTVPGSERSYDLTGLKPGTEYTVSIYGVHNVYKDTNMRGLPLSAIFTT | 0.91 | 1.02 | 0.92
3 | P54AR4-83v2 L86C, NEM conjugate (designed binder, NEM on Cys 86, His-tagged) LPAPKNLVVSEVTEDSARLSWDDPWAFYESFLIQYQESEKVGEAIVLTVPGSERSYDLTGLKPGTEYTVSIYGVHNVYKDTNMRGCPLSAIFTT | 0.92 | 0.96 | 0.77
4 | P54AR4-83v2 L88C, NEM conjugate (designed binder, NEM on Cys 88, His-tagged) LPAPKNLVVSEVTEDSARLSWDDPWAFYESFLIQYQESEKVGEAIVLTVPGSERSYDLTGLKPGTEYTVSIYGVHNVYKDTNMRGLPCSAIFTT | 0.97 | 1.03 | 0.95
5 | P54AR4-83v2 M83C, NEM conjugate (designed binder, NEM on Cys 83, His-tagged) LPAPKNLVVSEVTEDSARLSWDDPWAFYESFLIQYQESEKVGEAIVLTVPGSERSYDLTGLKPGTEYTVSIYGVHNVYKDTNCRGLPLSAIFTT | 0.24 | 0.04 | 0.07
6 | P54AR4-83v2 N6C, NEM conjugate (designed binder, NEM on Cys 6, His-tagged) LPAPKCLVVSEVTEDSARLSWDDPWAFYESFLIQYQESEKVGEAIVLTVPGSERSYDLTGLKPGTEYTVSIYGVHNVYKDTNMRGLPLSAIFTT | 0.89 | 1.01 | 0.76
7 | P54AR4-83v2 N76C, NEM conjugate (designed binder, NEM on Cys 76, His-tagged) LPAPKNLVVSEVTEDSARLSWDDPWAFYESFLIQYQESEKVGEAIVLTVPGSERSYDLTGLKPGTEYTVSIYGVHCVYKDTNMRGLPLSAIFTT | 0.91 | 0.97 | 0.75
8 | P54AR4-83v2 N82C, NEM conjugate (designed binder, NEM on Cys 82, His-tagged) LPAPKNLVVSEVTEDSARLSWDDPWAFYESFLIQYQESEKVGEAIVLTVPGSERSYDLTGLKPGTEYTVSIYGVHNVYKDTCMRGLPLSAIFTT | 0.96 | 0.97 | 0.56
9 | P54AR4-83v2 P2C, NEM conjugate (designed binder, NEM on Cys 2, His-tagged) LCAPKNLVVSEVTEDSARLSWDDPWAFYESFLIQYQESEKVGEAIVLTVPGSERSYDLTGLKPGTEYTVSIYGVHNVYKDTNMRGLPLSAIFTT | 0.01 | 0 | 0
10 | P54AR4-83v2 P4C, NEM conjugate (designed binder, NEM on Cys 4, His-tagged) LPACKNLVVSEVTEDSARLSWDDPWAFYESFLIQYQESEKVGEAIVLTVPGSERSYDLTGLKPGTEYTVSIYGVHNVYKDTNMRGLPLSAIFTT | 0.12 | 0.02 | 0.02
11 | P54AR4-83v2 P24C, NEM conjugate (designed binder, NEM on Cys 24, His-tagged) LPAPKNLVVSEVTEDSARLSWDDCWAFYESFLIQYQESEKVGEAIVLTVPGSERSYDLTGLKPGTEYTVSIYGVHNVYKDTNMRGLPLSAIFTT | 0.83 | 0.85 | 0.45
12 | P54AR4-83v2 P50C, NEM conjugate (designed binder, NEM on Cys 50, His-tagged) LPAPKNLVVSEVTEDSARLSWDDPWAFYESFLIQYQESEKVGEAIVLTVCGSERSYDLTGLKPGTEYTVSIYGVHNVYKDTNMRGLPLSAIFTT | 0.97 | 1.05 | 0.91
